The assay has as its target human mu opioid receptor, N-terminally his-tagged (human) (UniProt P35372). Description: SPR; Biacore-X, 25°C; OPRM captured on a Ni-NTA sensor chip (about 4000 RU), second cell as reference; running Buffer B (5 mM NaHPO4, 10% glycerol, 0.07% Fos-12, pH 7.5); EM-1 injected at 10, 30, 50, 60, 80, 100 nM, 5 µl/min, no regeneration; 1:1 interaction model.
UniProt P35372, sequence (P35372 whole entry): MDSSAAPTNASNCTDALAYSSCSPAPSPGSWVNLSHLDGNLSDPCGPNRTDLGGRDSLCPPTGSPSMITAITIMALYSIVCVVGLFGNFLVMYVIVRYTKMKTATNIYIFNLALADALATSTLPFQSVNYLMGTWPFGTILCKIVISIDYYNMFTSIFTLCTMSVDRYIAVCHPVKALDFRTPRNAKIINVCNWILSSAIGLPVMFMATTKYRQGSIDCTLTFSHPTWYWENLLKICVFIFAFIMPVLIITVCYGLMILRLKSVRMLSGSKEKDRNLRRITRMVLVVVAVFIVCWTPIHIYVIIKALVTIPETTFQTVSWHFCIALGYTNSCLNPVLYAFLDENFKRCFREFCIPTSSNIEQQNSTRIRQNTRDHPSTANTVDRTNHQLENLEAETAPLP

In general, Kd refers to the equilibrium constant for the complex coming apart. Consider endomorphin-1 (peptide), for which the Kd amounted to 60.9 nM.

Values taken from article PMC3578875.
